B1: MBP-5HVZ-R5C-B2-H6 (VHH, not shown: large carriers; small tags and cut ends)
VHH: QVQLVESGGGLVQPGGSLRLSCAASGSIFSLNWVHWFRQAPGKSREGVASINSGGHADYSDSVKGRFTISRDNAKNTVYLQMNSLKPEDTAVYYCAAGPYGAYNFNSWGQGTQVTVSS
B2: R5C-A2 (competition ELISA sample) (VHH)
VHH: QVQLVESGGGLVQPGGSLRLSCAASGDIFSKNAMHWVRQAPGKQREFVAGIYSDGSSLYADSVKGRFTISRDNAKNTVYLQMNSLKPEDTAVYYCAALDYSARYRTWGQGTQVTVSS
B3: MBP-R5C-B1-H6 (VHH, not shown: large carriers; small tags and cut ends)
VHH: QVQLVESGGGLVQPGGSLRLSCAASGSGFSNNAMHWYRQAPGKQREGVAGITSGSVSFYADSVKGRFTISRDNAKNTVYLQMNSLKPEDTAVYYCAAVTGSSTGNAGQGYLTWGQGTQVTVSS
B4: PP1095 MBP-5HVZ-PAPA-RN-2-H6 (VHH)
VHH: QVQLVESGGGLVQPGGSLRLSCAASGSYFSKNAVHWYRQAPGKGREWVAALTNSGSGNYKDSVKGRFTISRDNAKNTVYLQMNSLKPEDTAVYYCTANISESTGQGYDYWGQGTQVTVSS
B5: PP1097 MBP-5HVZ-PAPA-RN-5-H6 (VHH)
VHH: QVQLVESGGGLVQPGGSLRLSCAASGSSFRILAMHWYRQAPGKNREWVAVITSNGNTYYADSVKGRFTISRDNAKNTVYLQMNSLKPEDTAVYYCNADTLDLDDGATYNYWGQGTQVTVSS
B6: PP933 MBP-5HVZ-R5e-C1-H6 (VHH)
VHH: QVQLVESGGGLVQPGGSLRLSCAASGSIPYVQAMSWFRQAPGKGREGVASIGWGGGTYYADSVKGRFTISRDNAKNTVYLQMNSLKPEDTAVYYCAAKFRENFSFYDYWGQGTQVTVSS
notes: Form: Dimer
B7: PP906 MBP-5HVZ-S1b-E7-H6 (VHH)
VHH: QVQLVESGGGLVQPGGSLRLSCAASGGEFSDNGLHWFRQAPGKQREFVATASSDGSTQYRDSVKGRFTISRDNAKNTVYLQMNSLKPEDTAVYYCTALLMSSAGEYDVWGQGTQVTVSS
notes: Form: Dimer
B8: PP1147 MBP-5HVZ-PAPA-R5a-B7-H6 (VHH)
VHH: QVQLVESGGGLVQPGGSLRLSCAASGAFFSYGAIHWFRQAPGKQREEVAAITSGGSTGYADSVKGRFTISRDNAKNTVYLQMNSLKPEDTAVYYCNAGVVWLPSNAAYNLWGQGTQVTVSS
notes: Form: Dimer
B9: PP903 MBP-5HVZ-R1i-A11-H6 (VHH)
VHH: QVQLVESGGGLVQPGGSLRLSCAASGSILQINAIHWFRQAPGKQREEVAAITSGGSTGYADSVKGRFTISRDNAKNTVYLQMNSLKPEDTAVYYCAATSTRGGLDSDYWGQGTQVTVSS
notes: Form: Dimer
B10: PP900 MBP-5HVZ-R5a-F2-H6 (VHH)
VHH: QVQLVESGGGLVQPGGSLRLSCAASGSISSIEAMSWFRQAPGKQREGVATMASGGDTSYADSVKGRFTISRDNAKNTVYLQMNSLKPEDTAVYYCAAQTYRPDTWGRYTFWGQGTQVTVSS
notes: Form: Dimer
B11: PP904 MBP-5HVZ-R5b-C5-H6 (VHH)
VHH: QVQLVESGGGLVQPGGSLRLSCAASGSPFKTQTVHWFRQAPGKGREWVASITSGSGTQYMDSVKGRFTISRDNAKNTVYLQMNSLKPEDTAVYYCAAANDGYGVDWGQGTQVTVSS
notes: Form: Dimer
B12: PP935 MBP-5HVZ-S3b-E11-H6 (VHH)
VHH: QVQLVESGGGLVQPGGSLRLSCAASGDIYSQSAMAWYRQAPGKEREFVAAITTTGSRSYKDSVKGRFTISRDNAKNTVYLQMNSLKPEDTAVYYCAAFAVRSSSVSDAYDYWGQGTQVTVSS
notes: Form: Dimer
B13: PP1100 MBP-5HVZ-PAPA-RN-14-H6 (VHH)
VHH: QVQLVESGGGLVQPGGSLRLSCAASGENFSGNLVHWFRQAPGKAREGVATVTSTGSGYYADSVKGRFTISRDNAKNTVYLQMNSLKPEDTAVYYCAAKHQKGEIPYYDWGQGTQVTVSS
notes: Form: Dimer
B14: PP1096 MBP-5HVZ-PAPA-RN-3-H6 (VHH)
VHH: QVQLVESGGGLVQPGGSLRLSCAASGFEFTYRAVHWFRQAPGKGREWVAGVVSGGSTYYADSVKGRFTISRDNAKNTVYLQMNSLKPEDTAVYYCNAGPQAEEDTYDYWGQGTQVTVSS
B15: PP1098 MBP-5HVZ-PAPA-RN-9-H6 (VHH)
VHH: QVQLVESGGGLVQPGGSLRLSCAASGLRFAMTEMAWFRQAPGKQREFVALITEGGSGSYGDSVKGRFTISRDNAKNTVYLQMNSLKPEDTAVYYCAALHYTEGANTESATTFDYWGQGTQVTVSS
B16: PP1094 MBP-5HVZ-PAPA-RN-1-H6 (VHH)
VHH: QVQLVESGGGLVQPGGSLRLSCAASGYIFEGGPTAWFRQAPGKGREFVAAITTSGETSYAYSVKGRFTISRDNAKNTVYLQMNSLKPEDTAVYYCNATDRDETGYDYWGQGTQVTVSS
B17: PP883 MBP-R1e-D4-H6 (VHH)
VHH: QVQLVESGGGLVQPGGSLRLSCAASGSIREINAMHWVRQAPGKGRELVASIDSGSLDYYADSVKGRFTISRDNAKNTVYLQMNSLKPEDTAVYYCAASRSGDYRYWGQGTQVTVSS
notes: Form: Monomer
B18: PP901 MBP-5HVZ-R1e-B2-H6 (VHH)
VHH: QVQLVESGGGLVQPGGSLRLSCAASGQITAENYMHWYRQAPGKQREWVAAITTGGSTLYADSVKGRFTISRDNAKNTVYLQMNSLKPEDTAVYYCNADRSYFPDYWGQGTQVTVSS
notes: Form: Dimer
B19: PP884 MBP-R1i-A11-H6 (VHH)
VHH: B9 VHH
notes: Form: Monomer
B20: PP881 MBP-R5a-F2-H6 (VHH)
VHH: B10 VHH
notes: Form: Monomer
B21: PP885 MBP-R5b-C5-H6 (VHH)
VHH: B11 VHH
notes: Form: Monomer
B22: PP880 MBP-R5a-B5-H6 (VHH)
VHH: QVQLVESGGGLVQPGGSLRLSCAASGDDFIENAISWYRQAPGKGREWVAAVTLGGHSNYADSVKGRFTISRDNAKNTVYLQMNSLKPEDTAVYYCNYPVGIPAVAIDGRRSYGYWGQGTQVTVSS
notes: Form: Monomer
B23: PP1144 MBP-5HVZ-PAPA-R2c-F6-H6 (VHH)
VHH: QVQLVESGGGLVQPGGSLRLSCAASGRILAANIVHWYRQAPGKEREGVAGITTGGSNYYSDSVKGRFTISRDNAKNTVYLQMNSLKPEDTAVYYCNALGLGSASGSYESWGQGTQVTVSS
notes: Form: Dimer
B24: PP1132 MBP-4B0F-PAPA-R2c-F6-H6 (VHH)
VHH: B23 VHH
notes: Form: Heptamer
B25: PP1156 MPB-scTRP-PAPA-R2c-F6-H6 (VHH)
VHH: B23 VHH
notes: Form: Trimer
B26: PP1157 MPB-scTRP-PAPA-R2d-A6-H6 (VHH)
VHH: QVQLVESGGGLVQPGGSLRLSCAASGSGASIGAMHWFRQAPGKGREWVASITSAGNTYYGDSVKGRFTISRDNAKNTVYLQMNSLKPEDTAVYYCNALAGANYESQWEEYNYWGQGTQVTVSS
notes: Form: Trimer
B27: PP1133 MBP-4B0F-PAPA-R2d-A6-H6 (VHH)
VHH: B26 VHH
notes: Form: Heptamer
B28: PP1135 MBP-4B0F-PAPA-R5a-B7-H6 (VHH)
VHH: B8 VHH
notes: Form: Heptamer
B29: PP1159 MPB-scTRP-PAPA-R5a-B7-H6 (VHH)
VHH: B8 VHH
notes: Form: Trimer
B30: PP899 MBP-5HVZ-R5a-B5-H6 (VHH)
VHH: B22 VHH
notes: Form: Dimer
B31: PP922 MBP-R5a-F5-H6 (VHH)
VHH: QVQLVESGGGLVQPGGSLRLSCAASGYHASILAMHWVRQAPGKEREWVASMTWSDMTQYSDSVKGRFTISRDNAKNTVYLQMNSLKPEDTAVYYCAATYVTRDRPWTHWGQGTQVTVSS
notes: Form: Monomer

Molecular target: T1, recombinant SARS-CoV-2 RBD with C-terminal AviTag (SARS-CoV-2, UniProt P0DTC2 319-541)
Experiment: not given

Row | Binder | IC50 | Kd
1 | B1 | 5.9 nM | 57.3 nM
2 | B2 | 13.7 nM | 13.2 nM
3 | B3 |  | 55.3 nM

Molecular target: SARS-COV-2 Wuhan Reference RBD (SARS-CoV-2, UniProt P0DTC2 319-541)
Experiment: ELISA, RBD coated

Row | Binder | EC50
4 | B4 | 0.78 nM
5 | B5 | 0.25 nM
6 | B6 | 4.9 nM
7 | B7 | 2 nM
8 | B8 | 0.36 nM
9 | B9 | 0.27 nM
10 | B10 | 0.47 nM
11 | B11 | 1.06 nM
12 | B12 | 0.47 nM
13 | B13 | 0.31 nM
14 | B14 | 1.47 nM
15 | B15 | 0.83 nM
16 | B16 | 0.96 nM

Molecular target: T1, recombinant SARS-CoV-2 RBD with …
Experiment: BLI, biotinylated RBD on streptavidin biosensors [Cont. 6]

Row | Binder | Kd
17 | B17 | 47 nM
18 | B18 | 197 nM
19 | B7 | 15.5 nM
20 | B19 | 23.7 nM
21 | B9 | 6.98 nM
22 | B20 | 705 nM
23 | B10 | 9.13 nM
24 | B21 | 88.5 nM
25 | B11 | 11.8 nM
26 | B22 | 60.8 nM

Molecular target: T1, recombinant SARS-CoV-2 RBD with …
Experiment: ELISA, competition with coated ACE2-Fc for RBD [Cont. 1]

Row | Binder | IC50
27 | B23 | 3.2 nM
28 | B24 | 158 nM
29 | B25 | 165 nM
30 | B26 | 4.7 nM
31 | B27 | 11 nM

Molecular target: T1, recombinant SARS-CoV-2 RBD with …
Experiment: ELISA, competition with coated ACE2-Fc for RBD [Cont. 6]

Row | Binder | IC50
32 | B7 | 35.7 nM
33 | B8 | 2.4 nM
34 | B28 | 18.2 nM
35 | B29 | 56.5 nM
36 | B19 | 173 nM
37 | B9 | 1.5 nM
38 | B10 | 1.7 nM
39 | B11 | 2.5 nM
40 | B22 | 43.9 nM
41 | B30 | 0.9 nM

Molecular target: T1, recombinant SARS-CoV-2 RBD with …
Experiment: ELISA, competition with coated ACE2-Fc for RBD [Cont. 8]

Row | Binder | IC50
42 | B4 | 3.2 nM
43 | B5 | 2.3 nM
44 | B6 | 1.9 nM
45 | B31 | 97.9 nM
46 | B12 | 12.2 nM
47 | B13 | 3.2 nM
48 | B14 | 46.8 nM
49 | B15 | 2.3 nM
50 | B16 | 7.8 nM

From patent US20240150440A1 (LUMEN BIOSCIENCE, published 2024)
